Source: US6117976, “Manufacture and use of polypeptides tagged using binding molecules” (Medical Research Council, dated 2000)
No end group written: not given here.

Target: calmodulin (Homo sapiens (Human))
Assay: not stated (off-rate from calmodulin)

| Binder | koff |
| --- | --- |
| CEIKRAAAINLKALAALAKKIL (also: fluorescein label, site not given here) [TAG 2 peptide, fluoresceinated] | < 0.0001 s⁻¹ |
| CEIKRAAAINLKALAALAKKILIK (also: fluorescein label, site not given here) [TAG 4 peptide, fluoresceinated] | < 0.0001 s⁻¹ |
